The assay has as its target FRQ WT peptide … (FFD and the double arginines) (N. crassa). Briefly: peptide or protein array.

The substance “FREQUENCY-Interacting RNA Helicase, FRHΔ100 (E. coli expressed, 6x His-tag) (from UniProt Q1K502 100-1106) (domain or fragment)” returned a normalized microarray intensity of 64.

Values taken from publication doi:10.1101/2022.01.04.474980.
